For assay [1], the target named is T1, CR-Fc (UniProt P13385 31-169).
T1 construct: not shown: Fc part; not described
T1 sequence (looked up): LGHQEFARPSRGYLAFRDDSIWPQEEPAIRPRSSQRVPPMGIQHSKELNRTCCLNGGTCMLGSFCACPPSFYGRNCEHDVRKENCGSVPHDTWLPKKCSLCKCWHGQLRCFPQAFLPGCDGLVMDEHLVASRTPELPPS
Put plainly: Biacore, competition format in solution. On the technique in general: SPR reads the build-up and loss of mass on a sensor chip optically.

Assay [2] has as its target T2, LTβR-Fc (UniProt P36941 31-227).
T2 construct: Control protein on the Biacore chip; also called LT-beta receptor-Fc; control LTβR-Fc protein; not shown: Fc part; not described
Description: Biacore, Fc fusion protein immobilized on the chip. An excerpt:
We also analyzed the Cripto-Activin B interaction using Biacore. We discovered that Activin B directly binds CR-Fc immobilized on a Biacore chip with a high intensity, but not to a control LTβR-Fc protein (FIG. 10). We also observed that Activin A binding to CR-Fc was negligible.

Assay [3] addresses T1, CR-Fc. Put plainly: ELISA, ligand coated on the plate, CR-Fc detected with anti-Fc-alkaline phosphatase. As for the experimental part: We discovered that Cripto binds directly to Activin B. We coated ELISA plates with purified Activin B, Activin A, TGFβ1, GDNF or BMP2 and incubated with CR-Fc. We then added anti-Fc antibody conjugated to alkaline phosphatase and monitored binding by adding an alkaline phosphatase substrate and developing. We observed that CR-Fc bound to wells containing Activin B, but not to Activin A or the other ligands (FIG. 8). In addition, we pre-incubated CR-Fc with Activin A or B in solution before adding to an Activin B coated plate and observed that only Activin B inhibited binding (FIG. 9).
(An ELISA detects its analyte on a solid surface through an enzyme-linked reagent.)

T2 sequence (P36941 31-227): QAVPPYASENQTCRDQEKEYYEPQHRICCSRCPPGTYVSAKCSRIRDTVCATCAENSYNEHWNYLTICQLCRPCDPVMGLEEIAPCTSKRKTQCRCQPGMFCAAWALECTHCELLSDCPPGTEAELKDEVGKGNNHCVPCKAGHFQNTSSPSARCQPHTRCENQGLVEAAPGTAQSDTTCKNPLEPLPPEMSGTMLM

B1: Activin B (ligand, UniProt P09529 293-407, looked up)
chain: GLECDGRTNLCCRQQFFIDFRLIGWNDWIIAPTGYYGNYCEGSCPAYLAGVPGSASSFHTAVVNQYRMRGLNPGTVNSCCIPTKLSTMSMLYFDDEYNIVKRDVPNMIVEECGCA
One may read the Kd as the concentration at which binding is half-saturated. B1 registered a Kd in assay [1] of roughly 1 nM. Besides, the binding result in assay [2] is “no binding”.

B2: Activin A (ligand, UniProt P08476 311-426, looked up)
chain: GLECDGKVNICCKKQFFVSFKDIGWNDWIIAPSGYHANYCEGECPSHIAGTSGSSLSFHSTVINHYRMRGHSPFANLKSCCVPTKLRPMSMLYYDDGQNIIKKDIQNMIVEECGCS
Turning to B2, the binding result in assay [3] is “no binding”.

B3: GDNF (ligand, UniProt P39905 78-211, looked up)
chain: SPDKQMAVLPRRERNRQAAAANPENSRGKGRRGQRGKNRGCVLTAIHLNVTDLGLGYETKEELIFRYCSGSCDAAETTYDKILKNLSRNRRLVSDKVGQACCRPIAFDDDLSFLDDNLVYHILRKHSAKRCGCI
Take B3: the binding result in assay [3] is “no binding”.

B4: BMP2 (ligand, UniProt P12643 283-396, looked up)
chain: QAKHKQRKRLKSSCKRHPLYVDFSDVGWNDWIVAPPGYHAFYCHGECPFPLADHLNSTNHAIVQTLVNSVNSKIPKACCVPTELSAISMLYLDENEKVVLKNYQDMVVEGCGCR
For B4, the binding result in assay [3] is “no binding”.

Values taken from patent publication US20050255117A1 (Biogen, published 2005).
